Drawing on patent publication US12398179, this text covers IC50 for two substances.

The target in this assay is EphA2 extracellular domain fused to the Fc portion of an antibody (EphA2 Fc). In words: ELISA, inhibition of ephrin-A5 AP binding to immobilized EphA2 Fc; representative experiment; concentrations in nM. A general note: ELISA stands for enzyme-linked immunosorbent assay.
EphA2 extracellular domain fused to the Fc portion of an antibody (EphA2 Fc), sequence (P29317 whole entry, the tested form may be a part): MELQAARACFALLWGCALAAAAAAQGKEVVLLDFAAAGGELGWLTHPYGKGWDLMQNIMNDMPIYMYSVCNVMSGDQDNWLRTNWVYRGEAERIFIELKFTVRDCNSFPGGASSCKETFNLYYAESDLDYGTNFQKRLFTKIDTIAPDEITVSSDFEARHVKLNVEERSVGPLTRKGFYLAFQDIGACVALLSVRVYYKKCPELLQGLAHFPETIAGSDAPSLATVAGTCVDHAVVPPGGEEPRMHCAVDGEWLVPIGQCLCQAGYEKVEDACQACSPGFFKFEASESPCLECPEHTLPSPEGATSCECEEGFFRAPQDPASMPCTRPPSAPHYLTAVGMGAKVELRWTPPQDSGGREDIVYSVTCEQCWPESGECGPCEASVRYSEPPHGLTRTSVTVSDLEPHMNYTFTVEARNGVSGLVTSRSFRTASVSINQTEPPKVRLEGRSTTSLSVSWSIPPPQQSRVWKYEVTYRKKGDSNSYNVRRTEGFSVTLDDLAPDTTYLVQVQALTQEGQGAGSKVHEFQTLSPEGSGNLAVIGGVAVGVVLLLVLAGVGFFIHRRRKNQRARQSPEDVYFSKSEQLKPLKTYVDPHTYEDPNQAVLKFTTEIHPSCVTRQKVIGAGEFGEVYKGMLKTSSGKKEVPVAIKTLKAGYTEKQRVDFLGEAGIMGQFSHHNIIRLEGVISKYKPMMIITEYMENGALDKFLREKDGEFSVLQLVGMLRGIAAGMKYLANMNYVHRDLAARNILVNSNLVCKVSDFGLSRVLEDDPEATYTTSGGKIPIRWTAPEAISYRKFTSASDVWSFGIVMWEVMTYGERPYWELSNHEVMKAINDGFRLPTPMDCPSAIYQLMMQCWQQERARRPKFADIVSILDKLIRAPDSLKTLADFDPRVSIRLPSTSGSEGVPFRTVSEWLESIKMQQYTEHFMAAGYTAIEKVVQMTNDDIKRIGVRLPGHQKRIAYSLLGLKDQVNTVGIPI

The IC50 is the concentration that inhibits the measured activity by half. Higher therefore signals lower potency. For YSA1-10am (peptide), the IC50 was 3.5 µM. With YSA-K-bio (peptide) the figure was 2.8 µM.
